{"source": "patent US6602687B1", "about": "“DNA encoding human ciliary neurotrophic factor and method for producing the protein encoded thereby” (Regeneron Pharmaceuticals, Inc., priority 1989, dated 2003)", "key": {"[1]": {"tested_on": "Ventral spinal cord neurons", "experiment": "Neurofilament (NF) assay in ventral spinal cord neuron cultures", "format": "cell-based, rat", "conditions": "CNTF 10 ng/ml, NGF 50 ng/ml at plating; day 7", "procedure": "Sprague-Dawley rats (HSD or Zivic-Miller) were used for all experiments. Pregnant rats (E14) were sacrificed as described in 10.1.1.\nSpinal cords were removed aseptically from rat embryos as described in 10.1.2. The cord tissues were minced into small pieces and incubated in 0.1% trypsin (GIBCO) and 0.01% deoxyribonuclease type 1 (Sigma) at 37° C. for 20 minutes. Trypsin solution was then removed, rinsed and replaced with medium consisting of 45% Eagle's minimum essential medium (MEM), 45% Ham's nutrient mixture F12 (F12), 5% fetal calf serum (GIBCO), 5% horse serum (GIBCO) glutamine (2 mM), penicillin G (0.5 U/ml), and streptomycin (0.5 ug/ml). […] Total cell number yielded was determined by hemocytometer counting in the presence of trypan blue. […]\nAfter fixation of the cells in 4% paraformaldehyde at 4° C. for 2 hours, the cultures were then permeabilized and blocked according to the procedures described in Doherty et al. (1984, J. Neurochem. 42:1116-1122). Neurofilament protein was detected using a monoclonal antibody RT97 (Wood and Anderton, 1981, Biosci. Rep. 1:263-268) at a 1:1000 dilution. The reaction product was visualized using O-phenylenediamine (OPD) as a substrate and optical density was measured at 490 nm."}, "[2]": {"tested_on": "E18-19 rat hippocampal neurons", "experiment": "High affinity GABA uptake in hippocampal cultures", "format": "cell-based", "procedure": "Hippocampi were dissected from E18-19 rat embryos of Sprague-Dawley rats, and collected in F10 medium. The tissues were minced, rinsed twice with F10 medium (Gibco) and trypsinized with 0.25% trypsin (Gibco) for 20 minutes at 37° C. Trypsin was inactivated by the addition of a serum-containing medium composed of minimal essential medium (MEM) supplemented with fetal calf serum (FCS, 10%), glutamine (2 mM), penicillin (25 U/ml) and streptomycin (25 ug/ml). Dissociated cells obtained by gentle trituration were collected and centrifuged at low speed (500 rpm) for 30 seconds. The centrifugation was repeated twice, and the cell pellets were then resuspended in serum-containing medium. The cells were then plated onto 6 mm wells or 35 mm dishes that were coated with polyornithine (10 ug/ml) and laminin (10 ug/ml). In most of the experiments, the cells were plated at a low density of approximately 71,000 cells/cm^2. Five to six hours following the plating of cells, medium was changed to a serum-free medium containing 1% N3 and penicillin-streptomycin (25 units/ml and 25 ug/ml, respectively), at which time CNTF was added. Medium was changed every three to four days, with re-addition of the factor.\nTo obtain neuron-enriched cultures, cytosine arabinoside (Ara-C, 0.3 uM) was added for a period of 24 hours. Under such condition, the hippocampal cultures contain approximately 5-10% glial cells, as assessed by GFAP immunohistochemistry.\nUptake of GABA into non-neuronal cells was inhibited by the additional of 2 mM B-alanine, whereas uptake specific for neurons is verified by inhibition with nipecotic acid at 1 mM.\nThe CNTF used in all assays was recombinant rat CNTF, expressed and purified as described in Example Section 12 supra."}}, "data": [{"molecule": "CNTF: ciliary neurotrophic factor; recombinant rat CNTF in Sections 10, 15, 17, purified rat sciatic nerve CNTF in Section 11; see endpoint conditions (protein, UniProt P20294 1-200, looked up) Ciliary neurotrophic factor: MAFAEQTPLTLHRRDLCSRSIWLARKIRSDLTALMESYVKHQGLNKNINLDSVDGVPVASTDRWSEMTEAERLQENLQAYRTFQGMLTKLLEDQRVHFTPTEGDFHQAIHTLMLQVSAFAYQLEELMVLLEQKIPENEADGMPATVGDGGLFEKKLWGLKVLQELSQWTVRSIHDLRVISSHQMGISALESHYGAKDKQM", "values": [{"measurement": "increase in NF content versus untreated controls", "setting": "[1]", "result": 2.0, "unit": "fold"}, {"measurement": "increase in Gaba uptake at low plating density", "setting": "[2]; 71,000 cells/cm2, CNTF 10 ng/ml, 8 days", "result": "approximately 2.6 fold"}, {"measurement": "increase in Gaba uptake at higher plating density", "setting": "[2]; 143,000 cells/cm2, CNTF 10 ng/ml", "result": "failed to induce a significant increase"}, {"measurement": "concentration of CNTF required for a maximal response in GABA uptake", "setting": "[2]; AraC-treated neuron-enriched cultures", "result": 0.03, "unit": "ng/mL"}, {"measurement": "increase in Gaba uptake, CNTF added on the third day and cells treated for 8 days", "setting": "[2]; CNTF 10 ng/ml", "result": "failed to induce increase in Gaba uptake"}, {"measurement": "CNTF-induced increase in GABA uptake, addition delayed by one day", "setting": "[2]; CNTF 10 ng/ml, assayed 7 days later", "result": "lowered"}, {"measurement": "CNTF-induced increase in GABA uptake, addition on the third day after plating", "setting": "[2]; CNTF 10 ng/ml, uptake on the eighth day in culture", "result": "no longer produced an increase in GABA uptake"}, {"measurement": "increase in Gaba uptake versus untreated controls in AraC-treated cultures", "setting": "[2]; neuron-enriched cultures, cytosine arabinoside 0.3 uM for 24 h, 8 days", "result": 2.4, "unit": "fold"}, {"measurement": "concentration of CNTF required for a maximal response in GABA uptake", "setting": "[2]; neuron-glia mixed cultures (−AraC)", "result": 0.1, "unit": "ng/mL"}, {"measurement": "maximal increase in specific neuronal GABA uptake (dose response)", "setting": "[2]; recombinant rat CNTF 0.1 ng/ml for 8 days", "result": "approximately 3 fold"}, {"measurement": "maximal increase in specific neuronal GABA uptake versus untreated controls", "setting": "[2]; recombinant rat CNTF 10 ng/ml, 8 days after addition, 71,000 cells/cm2", "result": "approximately 4 fold"}, {"measurement": "concentration at which specific neuronal GABA uptake was increased", "setting": "[2]; recombinant rat CNTF, 8 days", "result": 0.01, "unit": "ng/mL"}]}]}
